Results from patent publication US20200079833A1 (AstraZeneca / MedImmune, published 2020).
Starred links: 1 amine or outer side, 2 acyl side, 3 side chain; linkers in the order of their positions; H or OH if unused. Non-standard residues stand in square brackets, D forms with d. Groups on a side chain read outwards from the residue. Primed or numbered codes have the meaning given here. No end group written: not given here. *: point of attachment. γGlu = O=C(O)[C@H](CCC(=O)[*:2])N[*:1]; Stearoyl = CCCCCCCCCCCCCCCCCC(=O)*; αMeF = C[C@](N)(Cc1ccccc1)C(=O)O; αMeK = C[C@](N)(CCCCN)C(=O)O; αMeS = C[C@](N)(CO)C(=O)O; PEG2′ = not defined here; Aib = CC(C)(N)C(=O)O

T1: glucose-dependent insulinotropic peptide (gastric inhibitory polypeptide) receptor (human, UniProt P48546 22-466)
T1 sequence (looked up): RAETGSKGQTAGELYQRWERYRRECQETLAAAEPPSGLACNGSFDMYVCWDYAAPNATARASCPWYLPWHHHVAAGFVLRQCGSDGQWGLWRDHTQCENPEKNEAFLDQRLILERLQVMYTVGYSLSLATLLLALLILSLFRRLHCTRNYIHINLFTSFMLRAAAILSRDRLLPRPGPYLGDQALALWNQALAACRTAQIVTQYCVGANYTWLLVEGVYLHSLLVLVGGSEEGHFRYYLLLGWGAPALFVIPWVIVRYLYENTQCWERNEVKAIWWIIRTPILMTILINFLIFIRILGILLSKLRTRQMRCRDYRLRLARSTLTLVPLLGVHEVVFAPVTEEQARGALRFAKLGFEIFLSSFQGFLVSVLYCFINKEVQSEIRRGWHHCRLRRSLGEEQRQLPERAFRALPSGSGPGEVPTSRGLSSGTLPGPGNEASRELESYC


Tests used:
Assay in all cases: cell-based or functional assay
GLP-1 receptor = GLP-1 receptor (human, UniProt P43220 24-463)
glucagon receptor = glucagon receptor (human, UniProt P47871 26-477)
[1] = molecular target: T1, glucose-dependent insulinotropic …

Chain of glucagon receptor (P47871 26-477): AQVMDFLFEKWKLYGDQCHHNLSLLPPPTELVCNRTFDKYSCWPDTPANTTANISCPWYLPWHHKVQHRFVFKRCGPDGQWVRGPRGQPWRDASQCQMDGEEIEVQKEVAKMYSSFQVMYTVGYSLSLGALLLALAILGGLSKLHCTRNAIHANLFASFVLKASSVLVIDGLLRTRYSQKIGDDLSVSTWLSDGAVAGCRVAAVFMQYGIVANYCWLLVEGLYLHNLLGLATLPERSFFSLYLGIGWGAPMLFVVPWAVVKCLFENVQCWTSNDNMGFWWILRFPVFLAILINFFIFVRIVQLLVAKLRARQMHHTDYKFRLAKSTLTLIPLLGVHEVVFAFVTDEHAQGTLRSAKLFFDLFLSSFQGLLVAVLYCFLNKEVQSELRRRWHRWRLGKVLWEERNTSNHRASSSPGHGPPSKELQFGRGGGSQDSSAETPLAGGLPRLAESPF

Binder | Primary assay EC50 (cAMP), Mean pM GLP-1R (GLP-1 receptor) | Primary assay EC50 (cAMP), n1 (GLP-1 receptor) | Primary assay EC50 (cAMP), n2 (GLP-1 receptor) | Primary assay EC50 (cAMP), n1 (glucagon receptor) | Primary assay EC50 (cAMP), n2 (glucagon receptor) | Primary assay EC50 (cAMP), n1 [1] | Primary assay EC50 (cAMP), n2 [1]
H[Aib]EGS[αMeF]TSDV[αMeS]S[αMeF]LEGEAAK([PEG2′-PEG2′-γGlu-Stearoyl])EFIA[αMeF]VV[αMeK]GG-NH2 [SEQ ID NO 48] | 6.1 pM | 0.0039 nM | 0.0082 nM | 26 nM | 26 nM | 26 nM | 26 nM
H[Aib]EGS[αMeF]TSEVSS[αMeF]LEGEAA[αMeK]E[αMeF]IA[αMeF]VV[αMeK]GG-NH2 (N-terminus assumed; SMILES CC[C@H](C)[C@H](NC(=O)[C@](C)(Cc1ccccc1)NC(=O)[C@H](CCC(=O)O)NC(=O)[C@](C)(CCCCN)NC(=O)[C@H](C)NC(=O)[C@H](C)NC(=O)[C@H](CCC(=O)O)NC(=O)CNC(=O)[C@H](CCC(=O)O)NC(=O)[C@H](CC(C)C)NC(=O)[C@](C)(Cc1ccccc1)NC(=O)[C@H](CO)NC(=O)[C@H](CO)NC(=O)[C@@H](NC(=O)[C@H](CCC(=O)O)NC(=O)[C@H](CO)NC(=O)[C@@H](NC(=O)[C@](C)(Cc1ccccc1)NC(=O)[C@H](CO)NC(=O)CNC(=O)[C@H](CCC(=O)O)NC(=O)C(C)(C)NC(=O)[C@@H](N)Cc1c[nH]cn1)[C@@H](C)O)C(C)C)C(=O)N[C@@H](C)C(=O)N[C@@](C)(Cc1ccccc1)C(=O)N[C@H](C(=O)N[C@H](C(=O)N[C@@](C)(CCCCN)C(=O)NCC(=O)NCC(N)=O)C(C)C)C(C)C) [SEQ ID NO 7] | 389 pM | 0.35 nM | 0.43 nM | 100 nM | 100 nM | 100 nM | 100 nM
H[Aib]EGS[αMeF]TSDV[αMeS]SYLEGEAAK([PEG2′-PEG2′-γGlu-Stearoyl])E[αMeF]IA[αMeF]VV[αMeK]GG-NH2 [SEQ ID NO 47] | 43.3 pM | 0.037 nM | 0.05 nM | 25 nM | 25 nM | 25 nM | 25 nM
H[Aib]EGS[αMeF]TSDVSS[αMeF]LEGEAAK([PEG2′-PEG2′-γGlu-Stearoyl])E[αMeF]IA[αMeF]VV[αMeK]GG-NH2 [SEQ ID NO 46] | 1560 pM | 0.92 nM | 2.2 nM | 26 nM | 26 nM | 26 nM | 26 nM
H[Aib]EGSFTSDV[αMeS]S[αMeF]LEGEAAK([PEG2′-PEG2′-γGlu-Stearoyl])E[αMeF]IA[αMeF]VV[αMeK]GG-NH2 [SEQ ID NO 45] | 3560 pM | 3.8 nM | 3.3 nM | 26 nM | 26 nM | 26 nM | 26 nM

Now from value to binder:

Primary assay EC50 (cAMP), Mean pM GLP-1R (GLP-1 receptor) | Primary assay EC50 (cAMP), n1 (GLP-1 receptor) | Primary assay EC50 (cAMP), n2 (GLP-1 receptor) | Primary assay EC50 (cAMP), n1 (glucagon receptor) | Primary assay EC50 (cAMP), n2 (glucagon receptor) | Primary assay EC50 (cAMP), n1 [1] | Primary assay EC50 (cAMP), n2 [1] | Binder
1.8 pM | 0.0014 nM | 0.0023 nM | 25 nM | 25 nM | 25 nM | 25 nM | H[Aib]EGS[αMeF]TSDV[αMeS]S[αMeF]LEGEAAK([PEG2′-PEG2′-PEG2′-Stearoyl])E[αMeF]IAWVV[αMeK]GG-NH2 [SEQ ID NO 55]
2 pM | 0.0015 nM | 0.0025 nM | 26 nM | 26 nM | 26 nM | 26 nM | H[Aib]EGS[αMeF]TSDVSS[αMeF]LEGEAAK([PEG2′-PEG2′-PEG2′-Stearoyl])E[αMeF]IA[αMeF]VV[αMeK]GG-NH2 [SEQ ID NO 52]
0.9 pM | 0.00083 nM | 0.0009 nM | 26 nM | 26 nM | 26 nM | 26 nM | H[Aib]EGS[αMeF]TSDV[αMeS]SYLEGEAAK([PEG2′-PEG2′-PEG2′-Stearoyl])E[αMeF]IA[αMeF]VV[αMeK]GG-NH2 [SEQ ID NO 53]
2.1 pM | 0.0017 nM | 0.0024 nM | 26 nM | 26 nM | 26 nM | 26 nM | H[Aib]EGSFTSDV[αMeS]S[αMeF]LEGEAAK([PEG2′-PEG2′-PEG2′-Stearoyl])E[αMeF]IA[αMeF]VV[αMeK]GG-NH2 [SEQ ID NO 51]
216 pM | 0.17 nM | 0.26 nM | 26 nM | 26 nM | 26 nM | 26 nM | H[Aib]EGS[αMeF]TSDV[αMeS]S[αMeF]LEGEAAK([PEG2′-PEG2′-γGlu-Stearoyl])E[αMeF]IA[αMeF]VVKGG-NH2 [SEQ ID NO 50]
0.9 pM | 0.00079 nM | 0.00093 nM | 26 nM | 26 nM | 26 nM | 26 nM | H[Aib]EGS[αMeF]TSDV[αMeS]S[αMeF]LEGEAAK([PEG2′-PEG2′-PEG2′-Stearoyl])EFIA[αMeF]VV[αMeK]GG-NH2 [SEQ ID NO 54]
124 pM | 0.096 nM | 0.15 nM | 25 nM | 25 nM | 25 nM | 25 nM | H[Aib]EGS[αMeF]TSDV[αMeS]S[αMeF]LEGEAAK([PEG2′-PEG2′-γGlu-Stearoyl])E[αMeF]IAWVV[αMeK]GG-NH2 [SEQ ID NO 49]
